± gives the uncertainty stated by the source.
B1: POU domain, class 3, transcription factor 4, residues 280 to 335; numbered along this chain, P49335 (parent)
chain: KKRTSIEVSVKGVLETHFLKCPKPAAQEISSLADSLQLEKEVVRVWFCNRRQKEKR

Variants of: B1
Experiment: abundance fitness (aPCA) (normalised: wild type 0, dead -1); higher = more abundant; growth selection in yeast, the domain comes from the species named
Conditions: Homo sapiens

Q: Which abundance fitness does the source give for KKRTSIEVSVKGVLETHFLKCPKPKAQEISSLADSLQLEKEVVRVWFCNRRQKEKR [A25K] here?
A: -0.015 ± 0.33

Q: For KKRTSIEVSVKGVLETHFLKCPKPCAQEISSLADSLQLEKEVVRVWFCNRRQKEKR [A25C], which abundance fitness is on record?
A: 0.18 ± 0.11

Q: For KKRTSIEVSVKGVLETHFLKCPKPLAQEISSLADSLQLEKEVVRVWFCNRRQKEKR [A25L], which abundance fitness is on record?
A: -0.262 ± 0.11

Q: For KKRTSIEVSVKGVLETHFLKCPKPAAQEITSLADSLQLEKEVVRVWFCNRRQKEKR [S30T], which abundance fitness is on record?
A: -0.118 ± 0.17

Q: Which abundance fitness does the source give for KKRTSIEVSVKGVLETHFLWCPKPAAQEISSLADSLQLEKEVVRVWFCNRRQKEKR [K20W] here?
A: -0.832 ± 0.18

Q: With KKRTSIEVSVKGVLETHFLKCPKPAAQEISSLADSLQLEKEVVRVWFTNRRQKEKR [C48T] as the variant, how does the abundance fitness read?
A: -0.187 ± 0.21

Q: With WKRTSIEVSVKGVLETHFLKCPKPAAQEISSLADSLQLEKEVVRVWFCNRRQKEKR [K1W] as the variant, how does the abundance fitness read?
A: 0.033 ± 0.42

Q: For KHRTSIEVSVKGVLETHFLKCPKPAAQEISSLADSLQLEKEVVRVWFCNRRQKEKR [K2H], which abundance fitness is on record?
A: -0.258 ± 0.23

Q: With KYRTSIEVSVKGVLETHFLKCPKPAAQEISSLADSLQLEKEVVRVWFCNRRQKEKR [K2Y] as the variant, how does the abundance fitness read?
A: -0.159 ± 0.27

Q: With KKRTSIEVSVKGVLYTHFLKCPKPAAQEISSLADSLQLEKEVVRVWFCNRRQKEKR [E15Y] as the variant, how does the abundance fitness read?
A: -1.23 ± 0.38

Q: Which abundance fitness does the source give for KKRTSIEVSVKGVLETHFLKCPKPAAQEISLLADSLQLEKEVVRVWFCNRRQKEKR [S31L] here?
A: -0.114 ± 0.12

Q: With KKRTSIEVSVKGVLETHFLKCPKPAAQEISHLADSLQLEKEVVRVWFCNRRQKEKR [S31H] as the variant, how does the abundance fitness read?
A: 0.219 ± 0.2

Q: Which abundance fitness does the source give for KKRTSIEVSVKGVDETHFLKCPKPAAQEISSLADSLQLEKEVVRVWFCNRRQKEKR [L14D] here?
A: -0.825 ± 0.24

Q: With KKRTSIEVSVKGVLETHFLKCPKPAWQEISSLADSLQLEKEVVRVWFCNRRQKEKR [A26W] as the variant, how does the abundance fitness read?
A: -0.05 ± 0.12

Q: Which abundance fitness does the source give for KKRTSIEVSVKGVLETHFLKCPKPAHQEISSLADSLQLEKEVVRVWFCNRRQKEKR [A26H] here?
A: -0.237 ± 0.23

Q: With KKRTSIEVSVKGVLETHALKCPKPAAQEISSLADSLQLEKEVVRVWFCNRRQKEKR [F18A] as the variant, how does the abundance fitness read?
A: -0.891 ± 0.14

Q: For KKRTSIEVSVKGVLETHFLKCPKPAAQEISSLADYLQLEKEVVRVWFCNRRQKEKR [S35Y], which abundance fitness is on record?
A: -0.364 ± 0.17

Q: With KKRTSIEVSVKGVLEMHFLKCPKPAAQEISSLADSLQLEKEVVRVWFCNRRQKEKR [T16M] as the variant, how does the abundance fitness read?
A: -0.214 ± 0.18

Q: For KKRGSIEVSVKGVLETHFLKCPKPAAQEISSLADSLQLEKEVVRVWFCNRRQKEKR [T4G], which abundance fitness is on record?
A: -0.189 ± 0.12

Q: With KKRTSIEVSVKGVLETHFLKCPKPAAQEISSLADSLQLEKEVVRVWFCNRRNKEKR [Q52N] as the variant, how does the abundance fitness read?
A: 0.273 ± 0.27

Q: Which abundance fitness does the source give for KKRTSIEVSVKGVLETHFLKCPKPAAQEISSLADSLQLEKEVVRVWFCNRRHKEKR [Q52H] here?
A: -0.069 ± 0.23

Q: With KKRTSIEVSVKGVLETHFLKCPKPAAQEISSLADSLQLEKEVVRVWFCNRRQKEKM [R56M] as the variant, how does the abundance fitness read?
A: 0.123 ± 0.24

Q: With KKRTSIEVSVKGVLETHFLKCPKPAAQEISSLADSLQLEKEVVRVWFCNRRQKEKS [R56S] as the variant, how does the abundance fitness read?
A: 0.015 ± 0.27

Q: Which abundance fitness does the source give for KKRTSIEVSVKVVLETHFLKCPKPAAQEISSLADSLQLEKEVVRVWFCNRRQKEKR [G12V] here?
A: -0.034 ± 0.28

Q: With KKRTSIEVSCKGVLETHFLKCPKPAAQEISSLADSLQLEKEVVRVWFCNRRQKEKR [V10C] as the variant, how does the abundance fitness read?
A: -0.486 ± 0.33

Q: For KKRTSIEVSVKGVLETHFLKCPKPAAQEISSTADSLQLEKEVVRVWFCNRRQKEKR [L32T], which abundance fitness is on record?
A: -0.939 ± 0.46

Q: Which abundance fitness does the source give for KKRTSIEVSVKGVLETHFLKCPKPAAQEISSFADSLQLEKEVVRVWFCNRRQKEKR [L32F] here?
A: -0.877 ± 0.38

Q: Which abundance fitness does the source give for KKRTSIEVSVKGVLETHFLKCPKPAAQEISSLADSLQQEKEVVRVWFCNRRQKEKR [L38Q] here?
A: -0.89 ± 0.26

Q: For KKRTSIEVSVKGVLETHFLKCPYPAAQEISSLADSLQLEKEVVRVWFCNRRQKEKR [K23Y], which abundance fitness is on record?
A: 0.396 ± 0.19

Q: With KKRTSIEVSVKGVLETHFLKHPKPAAQEISSLADSLQLEKEVVRVWFCNRRQKEKR [C21H] as the variant, how does the abundance fitness read?
A: -0.533 ± 0.2

Q: Which abundance fitness does the source give for KKRTSIEVSVKGVLETHFLKQPKPAAQEISSLADSLQLEKEVVRVWFCNRRQKEKR [C21Q] here?
A: 0.265 ± 0.2

Q: With KKRTSIEVSVKGVLETHFLKCPKPAAQEISSLADSLQLEKEVVRVWFCNRKQKEKR [R51K] as the variant, how does the abundance fitness read?
A: -1.04 ± 0.35

Q: For KKRTSIEVSVKGVLETHFLKCPKPAAQEISSLADSLDLEKEVVRVWFCNRRQKEKR [Q37D], which abundance fitness is on record?
A: 0.043 ± 0.33

Q: Which abundance fitness does the source give for KKRTSIEVSVKGVLETHFLKCPKPAAQEISSLADSLFLEKEVVRVWFCNRRQKEKR [Q37F] here?
A: -0.615 ± 0.38

Q: For KKRTSIEVSVKGVLETHFLKCPKPAAQEISSLADSLQLEKTVVRVWFCNRRQKEKR [E41T], which abundance fitness is on record?
A: -0.466 ± 0.21

Q: For KKRTSIEVSVKGVLETHFLKCPKPAAQEISSLADSLQLEKRVVRVWFCNRRQKEKR [E41R], which abundance fitness is on record?
A: -0.637 ± 0.14

Q: For KKRTSIEWSVKGVLETHFLKCPKPAAQEISSLADSLQLEKEVVRVWFCNRRQKEKR [V8W], which abundance fitness is on record?
A: -0.045 ± 0.16

Q: With KKRTSIEVSVKGVLETHFLKCPKPAAQEISSLADSLQLEKEVVRVWFCNRRQKEVR [K55V] as the variant, how does the abundance fitness read?
A: -0.069 ± 0.13

Q: For KKRTSIEVTVKGVLETHFLKCPKPAAQEISSLADSLQLEKEVVRVWFCNRRQKEKR [S9T], which abundance fitness is on record?
A: 0.008 ± 0.24

Q: Which abundance fitness does the source give for KKRTSIEVSVKGVLETHFLKCPKPAAQEISSLADSLQLEKEVVRVWFCNRRQKLKR [E54L] here?
A: -0.787 ± 0.16

Q: Which abundance fitness does the source give for KKRTSIEVSVKGVLETHFEKCPKPAAQEISSLADSLQLEKEVVRVWFCNRRQKEKR [L19E] here?
A: -0.391 ± 0.18

Q: With KKRTSIEVSVKGVLETHFLKCPKPAAQTISSLADSLQLEKEVVRVWFCNRRQKEKR [E28T] as the variant, how does the abundance fitness read?
A: -0.411 ± 0.17

Q: For KKRTSIEVSVKGVLETHFLKCPKPAAQWISSLADSLQLEKEVVRVWFCNRRQKEKR [E28W], which abundance fitness is on record?
A: -0.484 ± 0.31

Q: For KKRTSIEVSVKGVLETHFLKCPKGAAQEISSLADSLQLEKEVVRVWFCNRRQKEKR [P24G], which abundance fitness is on record?
A: -0.842 ± 0.4

Q: For KKRTSIEVSVKGVLETHFLKCPKPAAQEISSLADSLQLEKEVVRCWFCNRRQKEKR [V45C], which abundance fitness is on record?
A: -0.243 ± 0.36

Q: With KKRTSIEVSVKGVLETRFLKCPKPAAQEISSLADSLQLEKEVVRVWFCNRRQKEKR [H17R] as the variant, how does the abundance fitness read?
A: -0.845 ± 0.14

Q: For KKRTSIEVSVKGVLETHFLKCPKPAAQEISSLADSLQLEKEVVLVWFCNRRQKEKR [R44L], which abundance fitness is on record?
A: -0.686 ± 0.12

Source: the Human Domainome abundance scans (Beltran et al. 2025)
